The record followed here is article PMC4936022, “Epigenetic silencing of serine protease HTRA1 drives polyploidy”.

In data set [1] the target is T1, MBD2b (MBD2 lacking the N-terminal 149 residues) (UniProt Q9UBB5 150-411). The data set can be described thus: EMSA; 70 pmol each, equimolar; 5 mM Mg2+; EMSA: 50 mM Tris, 5 mM MgCl2, 10 mM DTT, pH 7.5, 5 min, RT, 10 ul, 12% gel, ethidium bromide; protease protection: 50 mM Tris, 5 mM MgCl2, pH 7.5, 10 min RT with DNA, then trypsin 20 min 37 C. The following applies: protein: recombinant; tags: 6His; label: none (ethidium bromide stain); blunt. A general note: In EMSA bound probe runs differently from free probe, usually more slowly.
T1 sequence (Q9UBB5 150-411): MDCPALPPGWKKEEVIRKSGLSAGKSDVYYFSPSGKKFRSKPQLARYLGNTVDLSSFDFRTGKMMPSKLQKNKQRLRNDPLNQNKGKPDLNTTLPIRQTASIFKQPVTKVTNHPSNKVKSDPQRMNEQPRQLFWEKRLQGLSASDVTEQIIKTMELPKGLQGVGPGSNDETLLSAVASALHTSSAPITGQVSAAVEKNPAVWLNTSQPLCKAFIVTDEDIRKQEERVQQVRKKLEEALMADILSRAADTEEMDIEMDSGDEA

In data set [2] the target is T1, MBD2b (MBD2 lacking the N-terminal 149 …). The data set can be described thus: EMSA; 70 pmol each, equimolar; 5 mM Mg2+; 1:1 stoichiometry; EMSA: 50 mM Tris, 5 mM MgCl2, 10 mM DTT, pH 7.5, 5 min, RT, 10 ul, 12% gel, ethidium bromide; protease protection: 50 mM Tris, 5 mM MgCl2, pH 7.5, 10 min RT with DNA, then trypsin 20 min 37 C. The following applies: protein: recombinant; tags: 6His; label: none (ethidium bromide stain); blunt.

B1: HTRA1 promoter 12-mer, unmethylated (dsDNA)
DNA 1: CTCAGCGAGAGA
DNA 2: TCTCTCGCTGAG
For B1, the binding result in data set [1] is recorded as “no binding”.

B2: HTRA1 promoter 12-mer, methylated (dsDNA)
DNA 1: CTCAGCGAGAGA
DNA 2: TCTCTCGCTGAG
modifications: 5-methyl-dC at position 6 of the reverse strand (TCTCT-5mC-GCTGAG); forward-strand methylation not visible in the material (line truncated), probably 5mC at position 6
As for B2, in data set [2], the binding result was “binds”.
